# Test results from IntAct's records for PubMed 35512704.
# B1: Speckle-type POZ protein (Homo sapiens), O43791 (parent)
# chain: MSRVPSPPPPAEMSSGPVAESWCYTQIKVVKFSYMWTINNFSFCREEMGEVIKSSTFSSGANDKLKWCLRVNPKGLDEESKDYLSLYLLLVSCPKSEVRAKFKFSILNAKGEETKAMESQRAYRFVQGKDWGFKKFIRRDFLLDEANGLLPDDKLTLFCEVSVVQDSVNISGQNTMNMVKVPECRLADELGGLWENSRFTDCCLCVAGQEFQAHKAILAARSPVFSAMFEHEMEESKKNRVEINDVEPEVFKEMMCFIYTGKAPNLDKMADDLLAAADKYALERLKVMCEDALCSNLSVENAAEILILADLHSADQLKTQAVDFINYHASDVLETSGWKSMVVSHPHLVAEAYRSLASAQCPFLGPPRKRLKQS
# partner: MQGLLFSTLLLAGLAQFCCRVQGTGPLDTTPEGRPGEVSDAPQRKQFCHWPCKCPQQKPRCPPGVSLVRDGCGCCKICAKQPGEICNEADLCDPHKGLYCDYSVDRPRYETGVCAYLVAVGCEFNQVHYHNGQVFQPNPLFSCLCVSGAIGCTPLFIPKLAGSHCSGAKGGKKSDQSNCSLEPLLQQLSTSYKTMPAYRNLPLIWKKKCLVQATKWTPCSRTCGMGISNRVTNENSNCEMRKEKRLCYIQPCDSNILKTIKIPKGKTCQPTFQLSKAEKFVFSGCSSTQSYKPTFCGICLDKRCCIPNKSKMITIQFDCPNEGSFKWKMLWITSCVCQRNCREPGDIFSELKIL
# B2: Speckle-type POZ protein (Homo sapiens), O43791 (parent)
# chain: B1 chain
# partner: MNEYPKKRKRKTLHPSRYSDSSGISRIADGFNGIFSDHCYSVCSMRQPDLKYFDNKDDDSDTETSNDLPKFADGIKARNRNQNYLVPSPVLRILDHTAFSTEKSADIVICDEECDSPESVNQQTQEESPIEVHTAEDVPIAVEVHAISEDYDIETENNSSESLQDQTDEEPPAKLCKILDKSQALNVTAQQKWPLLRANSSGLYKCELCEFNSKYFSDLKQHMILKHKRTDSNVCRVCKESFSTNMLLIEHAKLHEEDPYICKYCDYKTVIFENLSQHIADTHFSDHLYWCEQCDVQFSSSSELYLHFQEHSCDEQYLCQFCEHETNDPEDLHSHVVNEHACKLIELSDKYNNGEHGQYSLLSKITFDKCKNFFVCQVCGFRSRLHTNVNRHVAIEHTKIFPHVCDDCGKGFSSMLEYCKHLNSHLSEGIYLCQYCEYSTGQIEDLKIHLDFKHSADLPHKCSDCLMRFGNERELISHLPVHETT
# B3: Speckle-type POZ protein (Homo sapiens), O43791 (parent)
# chain: B1 chain
# partner: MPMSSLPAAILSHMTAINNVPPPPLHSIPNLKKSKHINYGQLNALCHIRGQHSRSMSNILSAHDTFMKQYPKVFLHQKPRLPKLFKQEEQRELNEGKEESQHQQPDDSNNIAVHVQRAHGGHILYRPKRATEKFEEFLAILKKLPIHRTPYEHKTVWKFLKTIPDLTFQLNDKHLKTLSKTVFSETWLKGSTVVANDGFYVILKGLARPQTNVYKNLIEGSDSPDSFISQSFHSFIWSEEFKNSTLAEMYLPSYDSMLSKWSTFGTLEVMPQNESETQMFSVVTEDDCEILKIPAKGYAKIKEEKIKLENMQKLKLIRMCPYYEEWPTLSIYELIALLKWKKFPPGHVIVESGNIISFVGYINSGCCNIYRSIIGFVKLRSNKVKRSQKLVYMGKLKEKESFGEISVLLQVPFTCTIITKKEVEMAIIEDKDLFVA
# B4: Speckle-type POZ protein (Homo sapiens), O43791 (parent)
# chain: B1 chain
# partner: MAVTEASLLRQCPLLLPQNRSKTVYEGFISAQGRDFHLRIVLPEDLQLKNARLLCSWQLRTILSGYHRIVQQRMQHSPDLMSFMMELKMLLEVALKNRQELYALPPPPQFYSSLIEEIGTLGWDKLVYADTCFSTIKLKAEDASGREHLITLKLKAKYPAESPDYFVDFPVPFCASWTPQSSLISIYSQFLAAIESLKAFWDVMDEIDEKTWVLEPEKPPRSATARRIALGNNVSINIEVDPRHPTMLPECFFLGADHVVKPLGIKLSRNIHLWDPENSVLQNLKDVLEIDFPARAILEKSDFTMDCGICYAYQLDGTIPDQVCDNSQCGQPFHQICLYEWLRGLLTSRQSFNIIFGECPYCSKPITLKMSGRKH
# B5: Speckle-type POZ protein (Homo sapiens), O43791 (parent)
# chain: B1 chain
# partner: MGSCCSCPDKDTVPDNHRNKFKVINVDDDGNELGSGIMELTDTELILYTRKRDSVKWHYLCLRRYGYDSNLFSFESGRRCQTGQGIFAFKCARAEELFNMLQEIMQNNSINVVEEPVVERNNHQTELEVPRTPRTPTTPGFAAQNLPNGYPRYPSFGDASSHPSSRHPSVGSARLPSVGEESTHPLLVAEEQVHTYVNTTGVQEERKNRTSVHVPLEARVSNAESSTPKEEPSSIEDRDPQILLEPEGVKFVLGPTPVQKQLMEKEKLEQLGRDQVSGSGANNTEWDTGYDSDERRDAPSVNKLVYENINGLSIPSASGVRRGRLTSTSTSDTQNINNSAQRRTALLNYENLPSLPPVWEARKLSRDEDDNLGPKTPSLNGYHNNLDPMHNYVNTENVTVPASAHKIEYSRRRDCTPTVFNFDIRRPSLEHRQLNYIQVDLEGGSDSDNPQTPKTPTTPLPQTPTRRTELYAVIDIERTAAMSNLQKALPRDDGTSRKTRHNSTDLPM
# B6: Speckle-type POZ protein (Homo sapiens), O43791 (parent)
# chain: B1 chain
# partner: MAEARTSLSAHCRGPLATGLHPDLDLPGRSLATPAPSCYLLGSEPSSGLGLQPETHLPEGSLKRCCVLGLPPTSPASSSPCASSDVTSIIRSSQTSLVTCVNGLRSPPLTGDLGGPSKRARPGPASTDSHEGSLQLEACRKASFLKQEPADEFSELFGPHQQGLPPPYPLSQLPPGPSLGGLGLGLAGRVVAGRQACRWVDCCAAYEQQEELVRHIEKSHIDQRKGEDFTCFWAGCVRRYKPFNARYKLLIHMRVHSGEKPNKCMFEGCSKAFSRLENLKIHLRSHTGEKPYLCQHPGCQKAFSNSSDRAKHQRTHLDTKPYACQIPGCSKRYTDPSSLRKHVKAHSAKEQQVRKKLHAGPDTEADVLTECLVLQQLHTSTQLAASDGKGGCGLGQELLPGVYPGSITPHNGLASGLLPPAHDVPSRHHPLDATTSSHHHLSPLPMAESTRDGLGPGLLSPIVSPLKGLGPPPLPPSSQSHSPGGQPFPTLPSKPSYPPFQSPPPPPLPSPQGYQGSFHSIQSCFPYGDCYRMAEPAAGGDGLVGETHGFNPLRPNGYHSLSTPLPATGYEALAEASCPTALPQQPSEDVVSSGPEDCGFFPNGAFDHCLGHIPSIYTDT
# B7: Speckle-type POZ protein (Homo sapiens), O43791 (parent)
# chain: B1 chain
# partner: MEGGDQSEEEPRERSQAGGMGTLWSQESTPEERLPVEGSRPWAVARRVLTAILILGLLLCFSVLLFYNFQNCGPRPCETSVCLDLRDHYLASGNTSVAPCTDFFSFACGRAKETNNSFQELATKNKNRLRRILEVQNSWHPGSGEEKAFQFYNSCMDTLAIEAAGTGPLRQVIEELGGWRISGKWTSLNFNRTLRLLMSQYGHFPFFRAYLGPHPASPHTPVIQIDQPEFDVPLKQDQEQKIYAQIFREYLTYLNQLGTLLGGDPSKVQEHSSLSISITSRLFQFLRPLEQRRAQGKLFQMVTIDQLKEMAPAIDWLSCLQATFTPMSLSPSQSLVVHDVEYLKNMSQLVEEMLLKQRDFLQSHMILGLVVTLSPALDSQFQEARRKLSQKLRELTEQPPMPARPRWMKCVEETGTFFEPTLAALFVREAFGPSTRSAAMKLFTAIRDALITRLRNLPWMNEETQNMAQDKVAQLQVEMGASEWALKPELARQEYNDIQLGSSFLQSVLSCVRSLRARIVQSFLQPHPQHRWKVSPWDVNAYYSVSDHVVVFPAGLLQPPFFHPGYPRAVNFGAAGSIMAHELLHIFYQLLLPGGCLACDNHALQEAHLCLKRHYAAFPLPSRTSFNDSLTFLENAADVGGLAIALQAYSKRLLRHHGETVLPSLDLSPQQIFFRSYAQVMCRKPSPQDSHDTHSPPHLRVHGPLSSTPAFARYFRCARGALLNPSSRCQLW
# Variants of: B1
# Details: with ccn6_human CCN6, O95389
row,Variant,effect of a mutation on the interaction
1,F133V,with no effect

# Variants of: B2
# Details: with zn639_human ZNF639, Q9UID6
row,Variant,effect of a mutation on the interaction
1,F102C,with no effect

# Variants of: B2
# Details: with zn639_human ZNF639, Q9UID6
# Remark: another data set of the same source
row,Variant,effect of a mutation on the interaction
1,F133L,with no effect

# Variants of: B2
# Details: with zn639_human ZNF639, Q9UID6
# Remark: another data set of the same source
row,Variant,effect of a mutation on the interaction
1,F133V,with no effect

# Variants of: B3
# Details: with cnbd1_human CNBD1, Q8NA66
row,Variant,effect of a mutation on the interaction
1,F133L,with no effect

# Variants of: B3
# Details: with cnbd1_human CNBD1, Q8NA66
# Remark: another data set of the same source
row,Variant,effect of a mutation on the interaction
1,Y87C,with no effect

# Variants of: B3
# Details: with cnbd1_human CNBD1, Q8NA66
# Remark: another data set of the same source
row,Variant,effect of a mutation on the interaction
1,F133V,with no effect

# Variants of: B4
# Details: with fancl_human FANCL
row,Variant,effect of a mutation on the interaction
1,F133L,with no effect

# Variants of: B4
# Details: with fancl_human FANCL
# Remark: another data set of the same source
row,Variant,effect of a mutation on the interaction
1,Y87C,with no effect

# Variants of: B5
# Details: with frs2_human FRS2, Q8WU20
row,Variant,effect of a mutation on the interaction
1,F133L,with no effect

# Variants of: B5
# Details: with frs2_human FRS2, Q8WU20
# Remark: another data set of the same source
row,Variant,effect of a mutation on the interaction
1,F133V,with no effect

# Variants of: B6
# Details: with glis1_human GLIS1, Q8NBF1
row,Variant,effect of a mutation on the interaction
1,F133L,with no effect

# Variants of: B6
# Details: with glis1_human GLIS1, Q8NBF1
# Remark: another data set of the same source
row,Variant,effect of a mutation on the interaction
1,Y87C,with no effect

# Variants of: B7
# Details: with kell_human KEL
row,Variant,effect of a mutation on the interaction
1,F133L,with no effect

# Variants of: B7
# Details: with kell_human KEL
# Remark: another data set of the same source
row,Variant,effect of a mutation on the interaction
1,Y87C,with no effect
